± gives the standard deviation of the averaged measurements.
System: Saccharomyces cerevisiae
Test: protein stability index of tFT-peptide fusion (C-terminal peptide) (PSI (0-1 scale)); higher = more stable (slower turnover)
Conditions: genetic background: wild type; temperature: 30 C
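Note: PSI is a weighted mean of sequencing reads over stability bins, variants kept only with over 10 reads, mCherry proximal and sfGFP distal, peptide attached via GGGS linker.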

Sequence	protein stability index
CFCVRTGCSVGV	0.663 ± 0.016
RPFGRPTSMRHA	0.616 ± 0.059
AGTHRDLFQRWS	0.711 ± 0.046
GLDVFFPMDRQA	0.764 ± 0.08
LGGWVGGRGVRG	0.717 ± 0.096
LPPPTLASTPPP	0.77 ± 0.045
PPPLSLTPPFLY	0.673 ± 0.074
RRKNIQEKKIKK	0.725 ± 0.016
NVCSSFLAELVN	0.6051 ± 0.0029
GTSSTPPPPAPP	0.661 ± 0.016
STPLPPPTPLPA	0.723 ± 0.029
NTIPRVTPDKSQ	0.642 ± 0.093
PPTFPHLPHSWP	0.792 ± 0.018
PHPPPSLLPSAP	0.7612 ± 0.0037
VGYWGMGFWFSG	0.65 ± 0.03
GEGGGAGGLEWG	0.687 ± 0.081
LSLPFLYCFATL	0.518 ± 0.0056
DVELTGCCLSRT	0.696 ± 0.026
APKYPIQEWIKL	0.594 ± 0.031
ASSDLQDSPIGD	0.665 ± 0.019
RGVCVGGGCWLV	0.624 ± 0.034
VEESNQILERQS	0.671 ± 0.0093
LPRAPPPPPLLL	0.757 ± 0.0076
PPPHSPLPAPPR	0.76 ± 0.086
PTKRHRKAPGTN	0.629 ± 0.069
WGGGGGLCGMWA	0.679 ± 0.032

Sequence	protein stability index
AAPSRASDLARP	0.661 ± 0.087
FYGCRLLFLKAR	0.5273 ± 0.00073
PTQSDSTSTSRI	0.69 ± 0.016
RKKKKKNKNEKE	0.713 ± 0.04
AAVGELLFTSLV	0.699 ± 0.022
VFRHIGVIYNNF	0.65 ± 0.013
PTIGTLPTVGDD	0.656 ± 0.02
LPPSPPLSPITS	0.55 ± 0.024
WGEGRGRVWEIS	0.665 ± 0.036
LRGVSGTLSSSC	0.6733 ± 0.0045
FLLCFLRIPSCP	0.5218 ± 0.0042
TCVRHKVQKSRE	0.688 ± 0.058
EVCFVWSLGEVL	0.623 ± 0.019
GHGEGPGRDLGG	0.648 ± 0.055
INRLKPGRGQKT	0.658 ± 0.03
GRQRGGRENEGE	0.673 ± 0.064
ARKRRRRGHDTE	0.725 ± 0.19
PPLPRPHHPYRR	0.708 ± 0.025
PFPPTPSPAPPL	0.7097 ± 0.0025
LPDAPCLCSGLL	0.714 ± 0.013
FSQNFVSTGFRL	0.702 ± 0.028
HPRRRPPPPSFP	0.611 ± 0.023
RSRGARMPTTPT	0.684 ± 0.034
MCDSFFGHSVRN	0.699 ± 0.043
GGGGGGSTPALG	0.667 ± 0.028
LSPSLPLPNPSP	0.729 ± 0.044

Sequence	protein stability index
PPQRHTTPTSWG	0.75862 ± 0.00034
AKEENQRKYTRR	0.637 ± 0.13
RSSLYLDVVLSF	0.709 ± 0.097
PPQTSVASRPTR	0.695 ± 0.019
KRRKKTQESSKA	0.726 ± 0.049
ICRGGLWGVCVG	0.581 ± 0.0097
VHGYVRLIWPTI	0.696 ± 0.053
LVFCSLLSLFFS	0.557 ± 0.012
PPPAAPPSSPLL	0.765 ± 0.071
VVAVTTIDSTHL	0.682 ± 0.033
GGDWVVVALLGV	0.596 ± 0.017
GGSARSIPVHVV	0.584 ± 0.025
SSPPPPPPPPSP	0.746 ± 0.053
TAMNNGNSIHKL	0.682 ± 0.041
SSGRWLFLPPCP	0.899 ± 0.13
PPPPPPPPRLTP	0.754 ± 0.074
SFFGYPCFLLSI	0.54 ± 0.026
EGKRGKTGVRRI	0.743 ± 0.055
PPLPPSSPPPSS	0.6605 ± 0.0028
ENVGRASDHSLS	0.679 ± 0.097
LPLHRFHPPPPY	0.715 ± 0.041
VWAGGSLLGCVG	0.686 ± 0.044
PHHPPPPLPCVV	0.632 ± 0.071
WWGFGGVWRCGL	0.6874 ± 0.0056
LRLAVVSHSCGA	0.639 ± 0.023
RQDLLILIKQKG	0.573 ± 0.0072

Sequence	protein stability index
RRGWGDRLGRDA	0.711 ± 0.1
IAKAVCESLCLQ	0.7146 ± 0.0063
SFSIPTCSVPLT	0.687 ± 0.096
SPTRSPPRPLPP	0.649 ± 0.031
PPSPPPPLPLLP	0.661 ± 0.077
SSPSPAPPPPRP	0.738 ± 0.069
RATSCAAPLLAR	0.6009 ± 0.0047
SGYKVYNSVHIL	0.602 ± 0.026
PAVFPSLENVAL	0.732 ± 0.046
GAGGSGRRIGCR	0.762 ± 0.052
VAGATGRWIGHG	0.6771 ± 0.0045
HIGVVSIERLTS	0.576 ± 0.021
WPASLCRLGSVH	0.64894 ± 0.00014
PPSRAPPAFPPL	0.827 ± 0.2
ADRTLLLKQWYG	0.682 ± 0.037
QLRRPPPPLPLP	0.714 ± 0.0072
VSGSSAIFLLWC	0.706 ± 0.1
SSTLPVYLSTTL	0.662 ± 0.023
CGLRRRAGGGGV	0.7 ± 0.024
LPPPPPPPPSTP	0.734 ± 0.0076
PPGPPRPFPSHL	0.785 ± 0.16
KTNLSNRKKHKG	0.653 ± 0.051
RMIPYDLIRLTR	0.705 ± 0.012
LLLPPPLSASSS	0.633 ± 0.028
PHPPLPPPPYLL	0.667 ± 0.016
QRGDDFHDTSPA	0.708 ± 0.0082

Sequence	protein stability index
SSLGLFISTASV	0.664 ± 0.042
VVLWSTGRVLYG	0.699 ± 0.025
GVSIGVLTGAWR	0.646 ± 0.0015
SHPPFPFAPPPR	0.674 ± 0.031
GCSACLVSSLAG	0.63129 ± 4e-05
LDKGNQDHEWTR	0.654 ± 0.023
TRGCIRWRVVRR	0.7 ± 0.035
PPPPPPAPPSPA	0.726 ± 0.051
PCRPPSILAPHP	0.739 ± 0.0097
VVARFDTILLWS	0.608 ± 0.06
PSTPPPPPGDFL	0.709 ± 0.037
IARYLGRYERNV	0.687 ± 0.042
NPHLTLPVHPPH	0.709 ± 0.026
AILFSASLTLLL	0.598 ± 0.012
ISHAGSVPDRSV	0.701 ± 0.04
YEASSIPAWRYV	0.529 ± 0.034
LVDSSLTESLDV	0.645 ± 0.034
PSIPSNPPTPPR	0.72 ± 0.033
GRCIPSFVLPRY	0.693 ± 0.029
SPPSFLSFFCAP	0.755 ± 0.14
NPHRRPPRAPWP	0.689 ± 0.039
EGRRCQGGVWRE	0.6818 ± 0.0061
LHVPPSPFPTPP	0.679 ± 0.049
PHPCSPAPPWPL	0.694 ± 0.028
LSRPPPPLLPSV	0.749 ± 0.03
THTEWVQFIRWY	0.733 ± 0.073

Sequence	protein stability index
SRVWACCGVIGV	0.667 ± 0.067
YNFLQSGADPNR	0.721 ± 0.016
LPSTLLLPLASP	0.712 ± 0.018
LVSPSSPLLPPP	0.685 ± 0.082
PTHSRQPPYLSL	0.684 ± 0.027
ARPPPPPRSSPL	0.747 ± 0.072
VEFGAPGFVEEW	0.734 ± 0.021
SICLLSAALPPP	0.708 ± 0.029
SFPRYRWRAATE	0.6704 ± 0.0021
GNWRGLRLMSAP	0.7603 ± 0.0062
DKTPRSHKKTAE	0.738 ± 0.022
LRPQKIPASSEA	0.678 ± 0.0077
FLGFPVVGVFGS	0.735 ± 0.031
VRFARSGPAHVC	0.6607 ± 0.003
PMPPPPPACSLD	0.777 ± 0.11
TLKPTHAPSPPP	0.672 ± 0.021
PSHPSPPPPAPP	0.692 ± 0.041
SFLSLYRLTPGR	0.655 ± 0.048
YVELTGRITTKL	0.716 ± 0.038
SLLCDQSSLGQC	0.747 ± 0.11
VRHSCRTTTPPS	0.708 ± 0.009
LTASRLAGSGGE	0.69 ± 0.023
LWRFMLGQGFEG	0.726 ± 0.022
NKKKREYKGMNF	0.686 ± 0.044
EVASMSCPVFLF	0.652 ± 0.03
YISEKKKIEERK	0.69 ± 0.032

Sequence	protein stability index
FPPCCSSFFGFF	0.752 ± 0.024
GPRQGVLEAASS	0.636 ± 0.025
QHFSSPQPVPYS	0.696 ± 0.013
DNWHRSFSTYPV	0.647 ± 0.099
PNPPHPPPLPPA	0.595 ± 0.033
RLLSPPPPPPPV	0.701 ± 0.071
EGAVGMSGSLGV	0.668 ± 0.063
SFLVSALASSLA	0.652 ± 0.019
KKKKEIKKKKKT	0.697 ± 0.06
VKGCKCGRIASY	0.669 ± 0.063
SPKPPPHPPPPA	0.535 ± 0.0095
GGRGVGVVLGVC	0.5219 ± 0.00031
KKKKKSKIEKKD	0.725 ± 0.077
RKASQEQYHQRH	0.648 ± 0.05
SAFLRRFLFFQW	0.572 ± 0.035
KDFGYKKKNRRY	0.734 ± 0.032
HLPSPPPPPSRL	0.744 ± 0.031
RGGGGPTVEDRR	0.681 ± 0.007
LSPSSPHLPFPL	0.702 ± 0.038
SPAPRAPRGICL	0.706 ± 0.017
PSSYFFPPHFLL	0.665 ± 0.1
ELTPCGNNDHAI	0.644 ± 0.0087
TFLRGSILLVSP	0.617 ± 0.059
LVYLQVFSSLLS	0.543 ± 0.014
SPSRVSYFFFFS	0.641 ± 0.059
SRPPPYAPPSPP	0.716 ± 0.01

Sequence	protein stability index
PLPPISSFPSLS	0.703 ± 0.028
PPRPTPLPHAPP	0.681 ± 0.02
FCCFGGSFFSLR	0.715 ± 0.02
HPYTPLLSRLSP	0.708 ± 0.0077
SNRCGRGMRVFA	0.658 ± 0.065
ACTPHLPLPAPQ	0.706 ± 0.016
AGLVADGYWLRR	0.6892 ± 0.005
NTSLLMAWPIPP	0.556 ± 0.032
IDKGENTGKHRL	0.673 ± 0.027
SLSDKRATKGED	0.65 ± 0.018
GATDMVTSGEWV	0.757 ± 0.021
GSGWRSRRAPGP	0.747 ± 0.047
AGVCVAVGGGGF	0.676 ± 0.03
PPPLPGSLLPLP	0.72349 ± 0.00037
DRYGVYPIYGKF	0.6855 ± 0.0054
GKRVNLNITSHS	0.683 ± 0.024
LVLFFRSYCLVV	0.5142 ± 0.0036
PPPGPSRRPAAL	0.726 ± 0.017
PRSLLSPPGSVD	0.704 ± 0.026
VRPQLGNHRILV	0.609 ± 0.0067

Reference: the supplement of paper PMC10724198
